Results from paper PMC11871066, “Structure-based discovery of hydrocarbon-stapled paxillin peptides that block FAK scaffolding in cancer” (Nature Communications, 2025).

Columns and labels:
[1] = biological target: Recombinant FAK FAT protein (fluorescence polarization assay) (human) (UniProt Q05397); test: FP
[2] = biological target: Biotinylated AviTag FAK FAT protein (UniProt Q05397); test: SPR; conditions: left panel, two-site binding model, peptide 200 µM to 49 nM, n = 5, X = olefinic amino acids joined by an i,i + 7 hydrocarbon staple
Chain of Biotinylated AviTag FAK FAT protein (Q05397 whole entry): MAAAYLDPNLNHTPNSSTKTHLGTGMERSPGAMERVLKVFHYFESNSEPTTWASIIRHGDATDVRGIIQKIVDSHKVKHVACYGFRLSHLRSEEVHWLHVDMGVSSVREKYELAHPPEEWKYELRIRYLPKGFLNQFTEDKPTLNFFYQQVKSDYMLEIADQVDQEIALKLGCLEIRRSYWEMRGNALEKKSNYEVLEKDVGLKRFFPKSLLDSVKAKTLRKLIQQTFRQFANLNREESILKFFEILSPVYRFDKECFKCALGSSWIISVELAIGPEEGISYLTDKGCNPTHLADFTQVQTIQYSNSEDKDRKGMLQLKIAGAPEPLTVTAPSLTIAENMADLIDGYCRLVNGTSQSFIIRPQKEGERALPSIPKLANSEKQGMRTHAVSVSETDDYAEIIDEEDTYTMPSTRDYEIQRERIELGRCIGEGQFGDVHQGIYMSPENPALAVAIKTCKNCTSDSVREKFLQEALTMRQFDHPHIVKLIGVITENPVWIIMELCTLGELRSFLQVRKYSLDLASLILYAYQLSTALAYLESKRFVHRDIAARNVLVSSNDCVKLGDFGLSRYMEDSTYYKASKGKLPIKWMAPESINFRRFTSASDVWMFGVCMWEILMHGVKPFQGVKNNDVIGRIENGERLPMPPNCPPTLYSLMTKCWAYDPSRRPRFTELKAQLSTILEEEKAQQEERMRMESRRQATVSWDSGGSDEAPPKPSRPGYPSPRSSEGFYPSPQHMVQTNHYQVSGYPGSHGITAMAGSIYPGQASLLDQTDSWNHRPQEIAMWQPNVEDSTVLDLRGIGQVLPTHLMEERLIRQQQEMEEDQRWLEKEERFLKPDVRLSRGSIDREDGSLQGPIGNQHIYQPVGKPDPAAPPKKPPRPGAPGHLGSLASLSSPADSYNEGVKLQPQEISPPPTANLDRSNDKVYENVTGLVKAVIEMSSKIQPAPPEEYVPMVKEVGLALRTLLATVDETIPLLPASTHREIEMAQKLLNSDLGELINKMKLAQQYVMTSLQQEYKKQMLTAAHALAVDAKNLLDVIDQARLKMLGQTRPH

Chain of Recombinant FAK FAT protein (fluorescence polarization assay) (human) (Q05397 whole entry): as above
Chain of Negative control peptide 2014 (1907 with L145E and L152E) (P49023 whole entry L145E/L152E, looked up, tested part not stated): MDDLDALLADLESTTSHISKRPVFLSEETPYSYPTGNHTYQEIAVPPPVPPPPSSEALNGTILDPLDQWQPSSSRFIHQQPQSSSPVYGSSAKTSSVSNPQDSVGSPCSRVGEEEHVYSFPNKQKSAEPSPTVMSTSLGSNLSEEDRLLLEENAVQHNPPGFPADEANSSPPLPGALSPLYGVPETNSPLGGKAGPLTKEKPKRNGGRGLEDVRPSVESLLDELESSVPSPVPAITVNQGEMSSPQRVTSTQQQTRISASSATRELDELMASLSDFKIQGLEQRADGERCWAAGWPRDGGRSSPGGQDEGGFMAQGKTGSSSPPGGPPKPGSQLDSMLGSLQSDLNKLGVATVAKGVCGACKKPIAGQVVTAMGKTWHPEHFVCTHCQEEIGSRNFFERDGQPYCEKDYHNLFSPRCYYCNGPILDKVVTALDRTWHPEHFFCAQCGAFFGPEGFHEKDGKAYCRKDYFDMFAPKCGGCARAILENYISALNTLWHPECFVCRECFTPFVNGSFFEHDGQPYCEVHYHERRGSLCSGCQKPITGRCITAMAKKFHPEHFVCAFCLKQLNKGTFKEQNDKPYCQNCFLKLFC

Substance | Ki [1] [µM] | Kd ([2]; KD1) [µM] | Kd ([2]; KD2) [µM]
Negative control peptide 2014 (1907 with L145E and L152E) (from UniProt P49023 141-153) | > 1250 |  | 
Paxillin LD2 peptide (141-…-153) S143X; L150X |  | 0.8 | 8.7
